Results from PMC12732243.

Target: human FSH receptor (human) (UniProt P23945)
Sequence (P23945 18-695): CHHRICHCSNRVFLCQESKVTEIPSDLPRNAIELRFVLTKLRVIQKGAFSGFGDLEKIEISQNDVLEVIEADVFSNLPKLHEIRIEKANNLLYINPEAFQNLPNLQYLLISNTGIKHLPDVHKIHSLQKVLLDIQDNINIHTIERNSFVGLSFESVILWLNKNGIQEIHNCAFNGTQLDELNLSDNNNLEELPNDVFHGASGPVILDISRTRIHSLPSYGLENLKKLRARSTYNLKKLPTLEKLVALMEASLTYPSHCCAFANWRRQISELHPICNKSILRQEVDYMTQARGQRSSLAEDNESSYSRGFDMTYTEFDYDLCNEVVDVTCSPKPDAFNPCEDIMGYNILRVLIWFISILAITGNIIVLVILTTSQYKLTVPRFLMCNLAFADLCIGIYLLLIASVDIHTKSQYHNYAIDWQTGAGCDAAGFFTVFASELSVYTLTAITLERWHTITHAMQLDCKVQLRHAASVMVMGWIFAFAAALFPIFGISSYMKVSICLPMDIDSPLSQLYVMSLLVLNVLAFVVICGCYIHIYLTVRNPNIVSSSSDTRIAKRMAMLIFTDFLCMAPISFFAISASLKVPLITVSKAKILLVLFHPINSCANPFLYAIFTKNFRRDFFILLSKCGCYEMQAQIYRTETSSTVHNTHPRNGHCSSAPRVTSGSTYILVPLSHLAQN

cAMP accumulation (HTRF) in HEK 293 cells expressing hFSHR, 30 min at room temperature with 0.5 mM IBMX; EC50 of the dose-response curve: 4.9 µL/mL
Substance: recombinant monkey single-chain FSHβ/α (from UniProt Q6EV79 19-129; Q9BEH3 25-120) (ligand)
